US20190031762A1, “POSTERIOR OCULAR FIBROSIS INHIBITION BY ANTAGONIZING PLACENTAL GROWTH FACTOR” (THROMBOGENICS NV, priority 2016, published 2019)

Columns and labels:
[1] = test system: mouse CNV model; assay: Posterior ocular collagen deposition (Col1a staining) in laser-induced CNV mouse model; type: in vivo; conditions: repeat experiment (FIG. 4), day 30, 3.1 μg/eye, compared to PBS
Experimental: Mice (C57BL/6J, male, 8-10 weeks old) were anesthetized by intraperitoneal injection (135 μL) of a mixture of ketamine hydrochloride (Anesketin; […]) and medetomidine (Domitor; 1 mg/mL) and their pupils dilated with one eye drop (50 μL) Tropicamide (Tropicol™; 5 mg/mL; Thea, Research Papers Clermont-Ferrand, France). Three laser burns were placed in one eye with a green laser at the 9, 12, 3 o'clock positions around the optic disk using a slit lamp delivery system with a hand-held cover slide as a contact lens moisturized with Genteal Gel™ (Novartis, Vilvoorde, Belgium). Each spot was placed with a spot size of 100 μm, laser duration of a 50 milliseconds and a power of 320 mW. […] Finally, 300 μL atipamezole (Antisedan; 5 mg/mL) was injected intraperitoneally to reverse the effect of medetomidine and to reduce sedation time.
At different time points after lasering, the compounds were administered intravitreally (IVT). The animal was anesthetized with a mixture of ketamine hydrochloride/medetomidine and the eye was treated with a drop of 0.4% oxybuprocaine (Unicaine; Thea Pharma). Intravitreal injections (1 μL) to one eye according to Tables 1 to 3 were performed by using an analytic science syringe (SGE Analytic Science) and glass capillaries with a diameter of 50-70 μm at the end, controlled by the UMP3I Microsyringe Injector and Micro4 Controller (all from World Precision Instruments Inc., Hertfordshire, UK). Finally, atipamezole (Antisedan) was injected intraperitoneally to reverse the effect of medetomidine and to reduce sedation time.
To analyze the in vivo efficacy of the different compounds, the retina was removed from the dissected posterior segments. These posterior eye cups, which included retinal pigment epithelium (RPE), the choroid and the sclera were stored in phosphate buffered saline (PBS).
To stain for the presence of collagen type 1 (Colla) protein in the laser spots at day 30 after laser, a rabbit anti-collagen antibody (Abcam, 1/270) was used overnight, diluted in Tris-buffered saline (TBS)-Triton 0.5% (v/v) at 4° C. The following day, the tissues were incubated for 2 hours with goat anti rabbit IgG Alexa Fluor 555 (Life Technologies; A-21428), diluted 1/100 in TBS-Triton 0.3% (v/v) at 4° C. The flat mounts of the posterior eye cups were mounted with Prolong Gold with 4′,6-diamidino-2-phenylindole (DAPI, Molecular Probes). Images were obtained using a microscope with a digital camera (Axiocam MrC5; Carl Zeiss, Oberkochen, Germany) at a magnification factor of 20. Morphometric analyses were performed using commercial software (Axiovision; Zeiss, Oberkochen, Germany). The density of collagen deposition was determined by calculating the Colla-positive area as a proportion of the total lesion.
The mouse CNV model as described in Example 2.1 was used. At different time points after lasering, compounds were administered intraperitoneally (IP), or intravitreally (IVT), as indicated in Table 3.

[2] = target: T1, human PlGF (Homo sapiens, UniProt P49763); assay: Binding of antibody to human PlGF
T1 sequence (P49763 19-131 limits assumed): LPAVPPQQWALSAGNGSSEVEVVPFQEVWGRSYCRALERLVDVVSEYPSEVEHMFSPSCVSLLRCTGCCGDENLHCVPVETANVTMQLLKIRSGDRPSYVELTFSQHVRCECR

[3] = target: T2, murine PlGF (Mus musculus, UniProt P49764); assay: Binding of antibody to murine PlGF
T2 sequence (P49764 19-158): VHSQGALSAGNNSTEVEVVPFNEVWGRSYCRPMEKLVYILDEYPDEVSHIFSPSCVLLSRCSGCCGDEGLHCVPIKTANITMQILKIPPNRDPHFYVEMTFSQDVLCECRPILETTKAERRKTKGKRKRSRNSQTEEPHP

B1: 16D3: murine anti-human PlGF-neutralizing antibody, CDRs SEQ ID NOs:1-6; hybridoma deposit LMBP 6399CB (antibody, V domains shown)
VH: QVQLQQSGAELVKPGASVKISCKASGYTFTDYYINWVKLAPGQGLEWIGWIYPGSGNTKYNEKFKGKATLTIDTSSSTAYMQLSSLTSEDTAVYFCVRDSPFFDYWGQGTLLTVSS
VL: DIVLTQSPDSLAVSLGERVTMNCKSSQSLLNSGMRKSFLAWYQQKPGQSPKLLIYWASTRESGVPDRFTGSGSGTDFTLTISSVQAEDVAVYYCKQSYHLFTFGSGTKLEIK
modifications: humanized heavy chain amino acid sequence of neutralizing anti-PlGF antibody; humanized light chain amino acid sequence of neutralizing anti-PlGF antibody
notes: hybridoma deposit LMBP 6399CB
- effect on collagen deposition / fibrosis, in words [1]: significantly decreased collagen deposition
- reduction in collagen deposition (Col1a) ([1]; IVT D0, 4, 10 and 20): 34%
- binding to human PlGF, in words [2]: binds
- affinity for murine PlGF relative to human PlGF, in words [3]: lower affinity
